Experimental data as given in US20150355179A1 (CENTRE NATIONAL DE LA RECHERCHE SCIENTIFIQUE CNRS, published 2015).

Molecular target: monomeric CDK2 (GST-CDK2/CIV in the absence of cyclin A) (UniProt P24941 1-298)
Assay: real-time fluorescence assay with Cy3-labelled sensor
Description: Fluorescence emission of Cy3 was measured at 590 nm following excitation at 544 nm on Polarstar™ fluorimeter.
Fluorescence kinase assays were performed in 96-well plates in a thermostated chamber (Polarstar BMG) at 30° C. in 200 ul phosphate buffer saline, pH 7.2, 150 mM NaCl, in the presence of 5 mM MgCl2, 0.5 mM ATP, except when stated otherwise. […] Changes in Cy3 fluorescence emission were recorded at 590 nm following excitation at 544 nm. […] Data analysis and curve fitting were performed using the GraFit Software (Erathicus Ltd).

binding result: no binding
B1: GST-CDKACTH1 labelled with Cy3 (CDKACTH1-Cy3) (other)
chain: GEVVDSHLSDMLQQLHSVNASKPSERGLVRQEEAEDPASIPIFWVSKWVDYSDKYGLGYQLSDNSVGVLFNDSTRLILYNDGDSLQYIERDGTESYLTVSSHPNSLMKKITLLKYFRNYMSEHLLKAGANITPREGDELARLPYLRTWFRTRSAIILHLSNGSVQINFFQDHTKLILSPLMAAVTYIDEKRDFRTYRLSLLEEYGSSKELASRLRYARTMVDKLLSSRSASNRLKASPGAGGTGGLPGGGGCSTPKKAKKL
modifications: Cy3-maleimide coupled to the unique cysteine of the substrate sequence (position -2 of the TP phosphorylation site)
notes: The GST tag was not removed; also called CDKACT-Cy3; CDKACT-H1 biosensor; not shown: N-terminal GST tag from the pGex6P1 vector, kept on the biosensor
